The test concerns the target T1, fluorescent labelled Bid BH3 peptide (fluorescent label (Flu- or FAM-), position not stated).
T1 construct: BH3 peptide derived from the pro-apoptotic protein Bid; The methods name two probes (Flu-Bid with Mcl-1); the two probes may differ in label and limits; also called Flu-Bid; FAM-Bid
The test is described as follows: fluorescence polarisation; direct binding of the fluorescent Bid probe to recombinant protein; Ex 485 nm, Em 530 nm, room temperature; buffer of the Kd determination not told apart from the two competitive assay buffers. Particulars: both partners purified. For orientation: Fluorescence polarisation rises when a labelled molecule tumbles more slowly, as on binding a larger partner.

B1: recombinant Bcl-xL protein (natural protein)
chain: MSQSNRELVVDFLSYKLSQKGYSWSQFSDVEENRTEAPEGTESEVKQALREAGDEFELRYRRAFSDLTSQLHITPGTAYQSFEQVVNELFRDGVNWGRIVAFFSFGGALCVESVDKEMQVLVSRIAAWMATYLNDHLEPWIQENGGWDTFVELYGNNAAAESRKGQERFN
Consider B1, for which the Kd turned out to be 20 ± 2.3 nM.

B2: recombinant Mcl-1 protein (wild type) (natural protein)
chain: EDELYRQSLEIISRYLREQATGAKDTKPMGRSGATSRKALETLRRVGDGVQRNHETAFQGMLRKLDIKNEDDVKSLSRVMIHVFSDGVTNWGRIVTLISFGAFVAKHLKTINQESCIEPLAESITDVLVRTKRDWLVKQRGWDGFVEFFHVEDLEGG
Turning to B2, the dissociation constant Kd came out at 3 ± 0.1 nM.

For orientation: Kd means a measure of binding affinity in units of concentration.

Source of the values: article PMC6033896 (Scientific Reports, 2018).
